What was measured:
[1] = target: SARS-CoV-2 Delta Spike (14-1209, S2P) (SARS-CoV-2) (UniProt P0DTC2); assay: cryo-EM structure
[2] = target: SARS-CoV-2 Omicron BA.1 Spike (14-1209, S2P) (SARS-CoV-2) (UniProt P0DTC2); assay: cryo-EM structure

Row | Substance | stoichiometry N [1] | stoichiometry N [2]
1 | SARS-CoV-2 Delta Spike (14-1209, S2P) (from UniProt P0DTC2 14-1209) (natural protein) | 3 | 
2 | SARS-CoV-2 Omicron BA.1 Spike (14-1209, S2P) (from UniProt P0DTC2 14-1209) (natural protein) |  | 3

Source: article PMC9852238
